Reference: the Human Domainome abundance scans (Beltran et al. 2025)
± gives the uncertainty stated by the source.

B1: WW domain-containing transcription regulator protein 1, residues 116 to 162; numbered along this chain, Q9GZV5 (parent)
chain: QSYDVTDELPLPPGWEMTFTATGQRYFLNHIEKITTWQDPRKAMNQP

Variants of: B1
Test: abundance fitness (aPCA) (normalised: wild type 0, dead -1); higher = more abundant; growth selection in yeast, the domain comes from the species named
Conditions: Homo sapiens

Variant	abundance fitness
T18A	0.023 ± 0.037
T18N	-0.159 ± 0.053
E8Y	-0.248 ± 0.067
Q24M	-0.489 ± 0.06
Q24C	-0.305 ± 0.056
Q24W	-0.82 ± 0.045
T20L	-0.519 ± 0.045
T20S	-0.115 ± 0.041
V5G	-0.194 ± 0.03
K42D	-0.26 ± 0.061
K42C	-0.097 ± 0.048
K42S	-0.203 ± 0.035
T6L	-0.104 ± 0.029
N29W	-0.965 ± 0.093
N29M	-1.02 ± 0.046
F27R	-0.761 ± 0.033
F27S	-0.579 ± 0.057
A21T	-0.039 ± 0.03
A21D	-0.029 ± 0.042
D4A	-0.083 ± 0.035
M44C	-0.02 ± 0.055

Variant	abundance fitness
F19S	-0.106 ± 0.041
F19P	-0.597 ± 0.033
P47N	-0.84 ± 0.32
Q46T	-0.058 ± 0.045
Q46G	-0.058 ± 0.033
Q46A	-0.138 ± 0.039
M17D	-0.414 ± 0.046
M17P	-0.345 ± 0.037
P12E	-0.601 ± 0.062
T35D	-0.728 ± 0.067
L9I	0.022 ± 0.05
L9E	-0.028 ± 0.034
E32L	0.201 ± 0.024
A43K	-0.006 ± 0.061
A43E	-0.018 ± 0.036
A43L	-0.008 ± 0.037
A43G	-0.013 ± 0.031
A43T	0.027 ± 0.045
I34C	-0.078 ± 0.035
P10V	-0.188 ± 0.028
P10M	-0.212 ± 0.036

Variant	abundance fitness
P10K	-0.115 ± 0.035
P10E	-0.058 ± 0.027
N45T	-0.044 ± 0.025
N45E	-0.125 ± 0.047
N45C	-0.089 ± 0.037
N45P	-0.135 ± 0.048
N45K	-0.052 ± 0.033
N45Q	-0.223 ± 0.064
P40K	-0.834 ± 0.13
P40Y	-1.07 ± 0.14
P40F	-1.09 ± 0.4
P40C	-0.92 ± 0.17
Y26E	-0.586 ± 0.065
T36E	-0.722 ± 0.031
T36R	-0.858 ± 0.058
L28N	-0.446 ± 0.085
L28P	-0.697 ± 0.099
L28V	0.035 ± 0.042
W37R	-0.392 ± 0.03
W15I	-0.802 ± 0.094
W15H	-0.876 ± 0.17

Variant	abundance fitness
W15Y	-0.351 ± 0.063
W15T	-0.753 ± 0.067
W15L	-0.89 ± 0.046
T22G	-0.052 ± 0.024
T22A	-0.092 ± 0.031
I31A	-0.174 ± 0.068
Q38S	-0.109 ± 0.026
Q38P	-0.879 ± 0.073
G23W	-0.964 ± 0.054
G23P	-0.827 ± 0.047
P13F	-0.093 ± 0.047
D7G	-0.154 ± 0.035
D7F	-0.312 ± 0.033
D7T	-0.065 ± 0.056
D7A	-0.049 ± 0.027
D7H	0.053 ± 0.055
R41K	-0.688 ± 0.042
R41H	-0.719 ± 0.053
E16C	-0.28 ± 0.051
E16F	-0.326 ± 0.046
